The record followed here is paper PMC12748774 (Nature Communications, 2025).

The target of assay [1] is T1, ZIKV CC_FLE sE (G5C/G102C), disulfide-linked dimer (Zika virus (Brazilian Zika SPH2015 …)).
T1 construct: source: Drosophila Schneider S2 cells, purified (His-tag column, SEC)
Kind of assay: cryo-EM structure. Particulars: both partners purified.

Assay [2] deals with ZIKV WT sE (recombinant soluble ectodomain of Zika virus envelope E protein, wild type) (Zika virus, Brazilian strain SPH2015 …, UniProt A0A0U3FSM8). Briefly: BLI. Particulars: both partners purified.

B1: SMZAb2 Fab (Fab, V domains shown)
VH: EVQLVQSGAEVKKPGSSVKVSCKAPGGTFSSYAMSWVRQAPGQGPEWVGGIVPVYGTSRYAQKFQGRGTITADESTSTVYLELSSLRSEDTALYYCARVRYYGSGTYYGGDAFDFWGQGTMVTVSS
VL: QTVVTQEPSFSVSPGGTVTLTCGLTSDSVSIHLYPSWYQQTPGQAPRALIYNTNTRSSGVPDRFSGSILGNKAALTITGAQADDESVYFCVVYMGSGIWVFGGGTKLTVL
notes: also called Fabs; source: 293F cells, co-transfected, purified (cOmplete His-Tag Purification Resin)
For B1, the “stoichiometry N” value in assay [1] was 2.

B2: OZ-D4_GL (germline-reverted OZ-D4, IgG1) (antibody, V domains shown)
VH: QVQLQESGPGLVKPSETLSLTCTVSGGSISSYYWSWIRQPPGKGLEWIGYIYYSGSTNYNPSLKSRVTISVDTSKNQFSLKLSSVTAADTAVYYCARYSSGWSFSFDIWGQGTRVTVSS
VL: QSALTQPASVSGSPGQSITISCTGTSSDVGSYNLVSWYQQHPGKAPKLMIYEGSKRPSGVSNRFSGSKSGNTASLTISGLQAEDEADYYCCSYAGSSTLVFGGGTKLTVL
Turning to B2, the binding result in assay [2] was “no binding (tested: 250 nM)”.
